{
  "source": "patent US20230257452A1",
  "about": "(GTINVENT, published 2023)",
  "key": {"[1]": {"target": "T1, full length human tau protein (2N4R, isoform Tau-F, 441 amino acids) (human, UniProt P10636 1-758)", "T1 construct": "also called hT40; htau40", "T1 sequence (P10636 other isoform, or with tags, fused parts or gaps limits assumed)": "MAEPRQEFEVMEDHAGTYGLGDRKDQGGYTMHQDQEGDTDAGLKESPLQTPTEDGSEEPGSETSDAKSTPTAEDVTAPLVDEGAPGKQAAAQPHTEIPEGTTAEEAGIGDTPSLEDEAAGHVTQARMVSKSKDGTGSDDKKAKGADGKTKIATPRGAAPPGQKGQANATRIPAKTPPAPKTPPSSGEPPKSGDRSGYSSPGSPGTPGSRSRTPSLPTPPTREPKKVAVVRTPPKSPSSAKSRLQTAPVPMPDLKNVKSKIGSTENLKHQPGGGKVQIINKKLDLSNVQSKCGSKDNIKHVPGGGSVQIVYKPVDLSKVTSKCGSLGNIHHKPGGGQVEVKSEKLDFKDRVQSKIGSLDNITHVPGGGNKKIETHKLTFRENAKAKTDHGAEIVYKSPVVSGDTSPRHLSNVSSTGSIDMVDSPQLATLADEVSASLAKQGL", "experiment": "ELISA, hT40 coated, scAb titrated"}, "dGAE aggregates [2]": {"target": "T2, dGAE aggregates (human, UniProt P10636 614-708, limits assumed)", "T2 construct": "100 µM dGAE aggregated with DTT at 37 °C, 700 rpm, 24 h; also called aggregated dGAE", "T2 sequence (P10636 614-708 limits assumed)": "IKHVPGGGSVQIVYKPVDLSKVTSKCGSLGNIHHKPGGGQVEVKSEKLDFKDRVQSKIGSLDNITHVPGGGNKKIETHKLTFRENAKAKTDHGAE", "experiment": "sandwich ELISA, 423 mAb capture, aggregation sample titrated, scAb at 10 ug/ml as detector [cont) G-I]", "method": "(§1) Following overnight agitation, one third of each sample was kept aside as ‘total’ and the rest was spun down at 16000×g for 30 min and separated into ‘supernatant’ and ‘pellet’. The pellet was then resuspended in half the original volume for further experiments. […] All double dilutions were done in final volumes of 100 μl. This was left to incubate on lab bench for 1 h followed by the addition of test scAbs at 10 μg/ml."}, "dGAE (tau 297-391) [3]": {"target": "T3, dGAE (tau 297-391) (human, UniProt P10636 614-708)", "T3 construct": "also called dGAE95", "T3 sequence (P10636 614-708 limits assumed)": "as above", "experiment": "sandwich ELISA, 423 mAb capture, dGAE titrated, scAb at 10 ug/ml as detector [cont) G-I]", "method": "as §1"}, "dGA (tau 297-390)": {"target": "dGA (tau 297-390) (human, UniProt P10636 614-707)", "sequence (P10636 614-707 limits assumed)": "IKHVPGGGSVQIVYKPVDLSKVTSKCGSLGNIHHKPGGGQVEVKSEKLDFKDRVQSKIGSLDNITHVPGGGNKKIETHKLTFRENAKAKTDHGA", "experiment": "ELISA", "text": "(§2) The plates were blocked with 2% MPBS and scAb samples added at desired starting concentrations and double diluted across the plate. Binding was detected using anti-Human C Kappa HRP conjugated secondary antibody and the resulting immunoreaction was developed and absorbance values measured as described above."}, "[4]": {"target": "T1, full length human tau protein (2N4R, …)", "experiment": "sandwich ELISA, S1D12 mAb capture, hT40 titrated, detection scAb at 10 ug/ml, colourimetric", "method": "(§3) Full length tau (hT40), at 1 μg/ml starting concentration was added to designated wells and double diluted across rest of the plates and left to incubate at R/T for 1 h. A series of detection scAbs with varying epitope recognition properties were added at 10 μg/ml to designated wells (FIG. 22). For colourimetric detection HRP conjugated anti-HuCk secondary antibody was used and the resulting immunoreaction was developed and absorbance at 450 nm measured as described previously. Cut-off point for a positive binding event was an absorbance value of 0.3 following background subtraction. In order to enhance the assay sensitivity, a chemiluminescent detection method was adopted where 50 μL SuperSignal ELISA Femto Substrate (Thermo Scientific) was added to each well following incubation with anti-HuCK HRP antibody and subsequent washing. The luminescence was read using Clariostar Plus microplate reader. A further modification to this protocol was done where various detection scAbs were directly conjugated with HRP and detected using chemiluminescent protocol as before."}, "[5]": {"target": "T4, mouse tau (isoform Tau-A) (mouse, UniProt P10637 2-733)", "T4 construct": "endogenous tau in mouse brain homogenate or plasma; also called endogenous mouse tau", "T4 sequence (P10637 other isoform, or with tags, fused parts or gaps limits assumed)": "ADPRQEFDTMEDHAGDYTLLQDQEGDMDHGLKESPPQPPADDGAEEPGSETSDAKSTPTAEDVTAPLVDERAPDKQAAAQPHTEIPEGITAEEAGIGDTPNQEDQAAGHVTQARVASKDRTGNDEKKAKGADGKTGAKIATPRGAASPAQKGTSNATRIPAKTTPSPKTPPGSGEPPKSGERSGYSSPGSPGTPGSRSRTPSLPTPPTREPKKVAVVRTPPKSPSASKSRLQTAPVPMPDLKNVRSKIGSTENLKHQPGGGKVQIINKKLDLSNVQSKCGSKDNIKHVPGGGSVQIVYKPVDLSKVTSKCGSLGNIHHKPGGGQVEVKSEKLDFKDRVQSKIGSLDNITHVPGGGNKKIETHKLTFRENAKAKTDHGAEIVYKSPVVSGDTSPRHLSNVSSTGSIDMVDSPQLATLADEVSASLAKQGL", "experiment": "sandwich ELISA on mouse brain homogenates (incl. wild type), S1D12 mAb capture"}, "[6]": {"target": "T1, full length human tau protein (2N4R, …)", "experiment": "sandwich ELISA, S1D12 mAb capture, hT40 titrated, detection scAb, chemiluminescent", "method": "as §3"}, "dGAE (tau 297-391) [7]": {"target": "T3, dGAE (tau 297-391)", "experiment": "tau-tau immunoassay: scAb preincubated with 100 nM dGAE; blocked ligand: plate-bound dGA (1000 nM); bound dGAE detected with E2E8", "method": "The adapted method is as follows: dGA (1000 nM) was adsorbed to a Nunc 96-well MaxiSorp plate and incubated for 1 h at 37° C. Plates were subsequently washed 3 times with PBST which was performed after each 1 h incubation. The plates were blocked with 2% (w/v) dried milk powder in PBS for 1 h at 37° C. […] The secondary antibody used was HRP-conjugated Anti-mouse IgG (1:1000 dilution, Sigma) and incubated at RT for 1 h. The plate was subsequently developed, and readings taken at absorbance 450 nm."}, "[8]": {"target": "T5, N biotin 341-353 tau peptide (human)", "T5 peptide": "Biotin-SEKLDFKDRVQSK", "experiment": "ELISA, biotinylated peptide on streptavidin, scAb titrated [B]", "method": "Briefly, 5 μg/ml streptavidin (Thermo Fisher) was adsorbed to Nunc 96-well MaxiSorp plates and following incubation at 37° C. for 1 h, the plates were washed as normal and blocked with 2% MPBS. […] Subsequently, test scAbs at starting concentrations of 100-500 nM was added and double diluted across the plate for each peptide and incubated for 1 h at 37° C. Rest of the ELISA was conducted as described above and the plates were read at absorbance 450 nm. Immunoreactivity of the scAb of interest was quantified as the % of scAb was bound for each peptide at a chosen concentration (FIG. 15-20)."}, "Tau 337-368": {"target": "Tau 337-368 (human)", "sequence (chain, as listed by the source)": "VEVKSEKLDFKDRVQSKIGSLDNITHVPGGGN", "experiment": "ELISA, antigen coated, scAb titrated; panel title 337-368", "text": "as §2"}, "[9]": {"target": "T1, full length human tau protein (2N4R, …)", "experiment": "ELISA, hT40 coated, scAb titrated", "remark": "listed apart in the source"}, "Tau 1-319": {"target": "Tau 1-319 (human, UniProt P10636 1-636)", "sequence (P10636 other isoform, or with tags, fused parts or gaps)": "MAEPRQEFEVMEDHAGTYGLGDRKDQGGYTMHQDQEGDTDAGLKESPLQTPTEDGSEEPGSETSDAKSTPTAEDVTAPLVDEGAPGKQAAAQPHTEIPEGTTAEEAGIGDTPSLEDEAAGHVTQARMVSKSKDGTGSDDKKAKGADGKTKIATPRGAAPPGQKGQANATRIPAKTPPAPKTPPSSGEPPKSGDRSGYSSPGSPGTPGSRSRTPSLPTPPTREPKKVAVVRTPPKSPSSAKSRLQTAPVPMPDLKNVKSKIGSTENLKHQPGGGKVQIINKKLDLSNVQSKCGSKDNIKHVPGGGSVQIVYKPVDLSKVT", "experiment": "ELISA", "text": "as §2"}, "[10]": {"target": "T1, full length human tau protein (2N4R, …)", "experiment": "ELISA", "text": "as §2"}, "dGAE aggregates [11]": {"target": "T2, dGAE aggregates", "experiment": "capture ELISA, mAb coated at 1 ug/ml, dGAE aggregates titrated, S1G2 scAb detection"}, "dGAE (tau 297-391) [12]": {"target": "T3, dGAE (tau 297-391)", "experiment": "ELISA, antigen coated, scAb titrated", "text": "as §2"}},
  "note": "Where no end group is shown, it is not given here. The star is where a group is joined. Biotin = O=C1N[C@H]2[C@H](CS[C@H]2CCCCC(=O)*)N1",
  "data": [
    {"binder": "CB3 scAb (scFv, not shown: human C kappa domain and hexa-His tag of the scAb format) scFv: QVQLQESGPSLVKPSQTLSLTCTVSGFSLSSVAVNWVRQAPGKVPEWLGGIISNGGTGYNPALKSRLSITRDTSKSQVSLALTHVTTEDTAVYYCGRGVEWEGSMDYLGPGLLVTVSSEGKSSGSGSETKVDDQSVLTQPSSVSGFLGQRVTITCSGSSSNVGAGSYVGWYQQVPGSGLRILIYGATKRASGLPDRFSGSRSGNTATLTISSLQAEDEADYYCVSYQTDFTLVFGSGTRLTVLG", "values": [
      {"measurement": "binding result", "setting": "[1]", "value": "binds"},
      {"measurement": "binding result", "setting": "dGAE aggregates [2]", "value": "binds"},
      {"measurement": "binding result", "setting": "dGAE (tau 297-391) [3]", "value": "binds"},
      {"measurement": "binding result", "setting": "dGA (tau 297-390)", "value": "binds"}
    ]},
    {"binder": "S1G2 scAb (scFv, not shown: human C kappa domain and hexa-His tag of the scAb format) scFv: QVQLQESGPSLVKPSQTLSLTCTVSGFSLTSNSVGWVRQAPGKAPEWVAGIDTDGEEGYNPALNSRLSITRDTSKSQVSLSLSSVTSEDTAVYYCGRSYRADGLAYGYVQAIDYWGPGLLVTVSSEGKSSGASGESKVDDQAVVTQPSSVSGSLGQRVSITCSGSFIGISSVGWFQQLPGSGLRTIIVASDGRPSGVPDRFSMSKSGNTATLTISSLQAEDEADYFCGSSDRTPYTGVFGSGTRLTVLG", "values": [
      {"measurement": "LoD (ng/ml) colourimetric detection", "setting": "[4]", "value": 2, "unit": "ng/mL"},
      {"measurement": "binding result", "setting": "[5]", "value": "binds"},
      {"measurement": "LoD (ng/ml) chemiluminescence detection", "setting": "[6]", "value": 0.12, "unit": "ng/mL"},
      {"measurement": "B50", "setting": "dGAE (tau 297-391) [7]", "value": 65, "unit": "nM"}
    ]},
    {"binder": "S1D12 scAb (scFv, not shown: human C kappa domain and hexa-His tag of the scAb format) scFv: QVQLQESGPSLVKPSQTLSLTCTVSGFSLNNNAVGWVRQAPGKVPESLVGCSSDGTCYYNSALKSRLDITRDTSKNQISLSLSSVTTDDAAVYYCTRGHYSIYGYDYLGTIDYWGPGLLVTVSSEGKSSGASGESKVDDQAVLTQPSSVSGSLGQRVSITCSGSSSNVGGGNSVGWYQHLPGSGLKTIIYDTNSRPSGVPDRFSGSRSGNTATLTINSLQAEDEGDYYCVTGDSTTHDDLVGSGTRLTVLG", "values": [
      {"measurement": "binding result", "setting": "[8]", "value": "binds"},
      {"measurement": "binding result", "setting": "Tau 337-368", "value": "binds"},
      {"measurement": "EC50 (read off the curve)", "setting": "[9]", "value": "~0.9", "unit": "µg/mL"},
      {"measurement": "B50", "setting": "dGAE (tau 297-391) [7]", "value": 80, "unit": "nM"}
    ]},
    {"binder": "CA7 scAb (scFv, V domains shown, tested as scAb (VH-linker-VL-HuCk-His in one chain)) VH: RVRLQGSGPSLVKPSQTLSLTCTVSGFSFDSYYVGWVRQAPGKALEWLGNIYSTGRAFYNPALKSRLSITRDTSKSQVSLSVSSVTIEDTALYYCVRGSYYHGGGNGMVDFFDYWSPGLLVTVSS VL: QVVRTQPSSVSGSLGQRVSITCSGSSSNVGYGNYVGWFQQVPGSAPKLLIYAATSRASGVPDRFSGSRSGNTATLTIDSLQAEDEADYYCSSYQRGNTGVFGSGTRLTVLG", "values": [
      {"measurement": "binding result", "setting": "Tau 1-319", "value": "binds"},
      {"measurement": "binding result", "setting": "[10]", "value": "binds"}
    ]},
    {"binder": "E2E8 mAb (antibody, mouse IgG2a, V domains shown, sheep-mouse (IgG2a) chimeric mAb) VH: QVQLQESGPSLVKPSQTLSLTCTVSGFSLTDRGVAWVRQAPGKALEWVGTMRSGGTIDYNPALKSRLSITRDTSKSQVFLSLSSVTTEDMAMYYCARGYLSGDRYAWGRGLLVTVSS VL: QAVLTQPSSVSKSLGQSVSIACSGSRSDIGYGNYVSWFQQIPGSAPKLLIYDTNTRASGVPDRFSGARSGNTATLTINSLQAEDEADYYCANIDSSRSHLFGSGTRLTVLG", "values": [
      {"measurement": "binding result", "setting": "dGAE aggregates [11]", "value": "binds"}
    ]},
    {"binder": "E2B7 scAb (scFv, not shown: human C kappa domain and hexa-His tag of the scAb format) scFv: QVQLQESGPSLVKPSQTLSLTCTVSGFSLTSWGVAWVRQAPGKALEWLGTMRSGGGTEYNPALKSRLSITRDTSKSQVSLSLSSVTTEDMAMYYCARGYLSGIHYAWGRGLLVSVSSEGKSSGASGESKVDDQAVLTQLSSVSGSLGQRVSITCSGSSSNVGDGDYVGWFQQLPGSAPKLLIYSARNRASGVPDRFSGSRSGNTATLTITSLQAEDEADYYCASIDTSRSHIFGSGTRLTVLG", "values": [
      {"measurement": "binding result", "setting": "dGAE (tau 297-391) [12]", "value": "binds"}
    ]}
  ]
}
